In patent publication US20260174875A1 (Novo Nordisk A/S, priority 2023, published 2026):
Numbered stars: 1 amine (or outer) side, 2 acyl side, 3 side chain; on linkers, the order of the positions; unused ones are H or OH. Square brackets hold non-standard residues; d marks the D form. Side chains are listed from the residue outwards. * marks the point of attachment. C20 diacid = O=C(O)CCCCCCCCCCCCCCCCCCC(=O)*; C18 diacid = O=C(O)CCCCCCCCCCCCCCCCC(=O)*; γGlu = O=C(O)[C@H](CCC(=O)[*:2])N[*:1]; Chem. 27 = not defined here; Chem. 28 = not defined here; Chem. 29 = not defined here; AEEA = NCCOCCOCC(=O)O; Aib = CC(C)(N)C(=O)O

T1: human GIP receptor (human, UniProt P48546 22-466)
T1 sequence (looked up): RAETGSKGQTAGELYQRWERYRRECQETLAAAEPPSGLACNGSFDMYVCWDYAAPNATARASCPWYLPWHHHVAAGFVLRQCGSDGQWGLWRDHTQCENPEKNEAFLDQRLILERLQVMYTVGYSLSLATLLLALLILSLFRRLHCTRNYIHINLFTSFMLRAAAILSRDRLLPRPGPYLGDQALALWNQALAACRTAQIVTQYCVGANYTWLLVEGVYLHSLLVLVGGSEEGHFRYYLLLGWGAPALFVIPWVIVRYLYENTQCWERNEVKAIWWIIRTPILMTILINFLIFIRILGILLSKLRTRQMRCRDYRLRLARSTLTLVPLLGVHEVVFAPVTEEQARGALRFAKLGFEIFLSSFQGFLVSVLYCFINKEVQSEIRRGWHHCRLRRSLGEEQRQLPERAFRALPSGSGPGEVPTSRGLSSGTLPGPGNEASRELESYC

T2: human amylin-3(a) receptor (human, UniProt P30988 25-474; O60896 24-148)
T2 sequence (looked up) 1: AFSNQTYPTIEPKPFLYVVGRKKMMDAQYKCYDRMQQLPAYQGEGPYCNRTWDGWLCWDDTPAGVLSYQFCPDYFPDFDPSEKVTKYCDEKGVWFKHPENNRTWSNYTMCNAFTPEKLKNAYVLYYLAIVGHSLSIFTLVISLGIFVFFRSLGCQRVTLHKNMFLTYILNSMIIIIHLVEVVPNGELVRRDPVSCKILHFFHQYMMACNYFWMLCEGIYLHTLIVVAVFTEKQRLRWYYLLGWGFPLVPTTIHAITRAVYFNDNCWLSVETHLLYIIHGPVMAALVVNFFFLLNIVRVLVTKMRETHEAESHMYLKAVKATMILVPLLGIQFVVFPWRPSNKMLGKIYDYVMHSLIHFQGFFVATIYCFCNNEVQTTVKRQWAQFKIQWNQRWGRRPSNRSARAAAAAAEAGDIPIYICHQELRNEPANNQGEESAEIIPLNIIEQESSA
T2 sequence (looked up) 2: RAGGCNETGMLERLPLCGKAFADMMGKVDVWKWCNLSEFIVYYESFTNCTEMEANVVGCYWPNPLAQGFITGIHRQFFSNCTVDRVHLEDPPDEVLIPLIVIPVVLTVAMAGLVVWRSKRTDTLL


Experiments:
Test in all cases: cell-based or functional assay
human GLP-1 receptor [1] = target: T3, human GLP-1 receptor (human, UniProt P43220 24-463)
human GIP receptor [2] = target: T1, human GIP receptor
[3] = target: T2, human amylin-3(a) receptor
human GLP-1 receptor [4] = target: T3, human GLP-1 receptor; remark: listed apart in the source
human GIP receptor [5] = target: T1, human GIP receptor; remark: listed apart in the source
[6] = target: T2, human amylin-3(a) receptor; remark: listed apart in the source

Binder | hGLP-1R Potency, no HSA, EC50 [pM] (human GLP-1 receptor [1]) | hGIPR Potency, no HSA, EC50 [pM] (human GIP receptor [2]) | hAMYR3 Potency, no HSA, EC50 [pM] [3] | hGLP-1R Potency, 1% HSA, EC50 [pM] (human GLP-1 receptor [4]) | hGIPR Potency, 1% HSA, EC50 [pM] (human GIP receptor [5]) | hAMYR3 Potency, 1% HSA, EC50 [pM] [6]
Compound 103 (reading uncertain) peptide: H[Aib]HGTFTSDYSILLEEQAAREFIEWLLAGGPSSGAGQAPGQAPGASHLSTAQTARLSAELHK(Chem. 28)LATLPRTETGSGSP-NH2 | 5.24 pM | 3.14 pM | 2.42 pM | 33.1 pM | 13.3 pM | 73.6 pM
Compound 102 (reading uncertain) peptide: Y[Aib]EGTFTSDYSILLEEQAAREFIEWLLAGGPSSGAGQAPGQAPGASHLSTAQTQRLSAELHQLK(Chem. 28)TLPRTETGSGSP-NH2 | 11 pM | 2.24 pM | 3.26 pM | 47 pM | 12.2 pM | 134 pM
Compound 109 (not fully specified; reading uncertain) peptide: Y[Aib]EGTFTSDYSILLEEQAAREFIEWLLAGGPSSGAPPPSGGGEASHLSTAQTQRLSAK(Chem. 28)LHRLATLPRTETGSGSP-NH2 | 68.9 pM | 7.42 pM | 3.65 pM | 94.7 pM | 17.4 pM | 32 pM
Compound 112 (peptide) peptide: H[Aib]HGTFTSDYSILLEEQAAREFIEWLLAGGPSK([γGlu-C18 diacid])GAPPPSGGGEASHLSTAQTARLSAELHRLADLPRTETGSGSP-NH2 | 4.37 pM | 2.42 pM | 3.65 pM | 336 pM | 321 pM | 269 pM
Compound 11 (reading uncertain) peptide: Y[Aib]EGTFTSDYSILLEEQAAREFIEWLLAGGPSK(Chem. 29)GEASELSTAALGRLSAELHELATLPRTETGSGSP-NH2 | 10.4 pM | 1.69 pM | 12.8 pM | 204 pM | 58.3 pM | 211 pM
Compound 107 (reading uncertain) peptide: H[Aib]HGTFTSDYSILLEEQAAREFIEWLLAGGPSSGALQAPGQAPGASHLSTAQTARLSAELHRLATLPK(Chem. 28)TETGSGSP-NH2 | 4.1 pM | 3.87 pM | 3.07 pM | 13.9 pM | 8.76 pM | 93.1 pM
Compound 110 (not fully specified) peptide: Y[Aib]EGTFTSDYSILLEEQAAREFIEWLLAGGPSSGAPPPSGGGEASHLSTAQTQRLSAK([AEEA-AEEA-γGlu-C20 diacid])LHRLATLPRTETGSGSP-NH2 | 107 pM | 8.01 pM | 3.27 pM | 169 pM | 29.3 pM | 94 pM
Compound 108 (reading uncertain) peptide: H[Aib]HGTFTSDYSILLEEQAAREFIEWLLAGGPSSGALQAPGQAPLASHLSTAQTARLSAELHK(Chem. 28)LATLPRTETGSGSP-NH2 | 4.57 pM | 4.01 pM | 2.48 pM | 15 pM | 11.4 pM | 60 pM
Compound 106 (reading uncertain) peptide: H[Aib]HGTFTSDYSILLEEQAAREFIEWLLAGGPSSGALQAPGQAPGASHLSTAQTARLSAELHRLK(Chem. 28)TLPRTETGSGSP-NH2 | 3.33 pM | 4.8 pM | 2.07 pM | 11.1 pM | 10.3 pM | 31.2 pM
Compound 105 (reading uncertain) peptide: Y[Aib]EGTFTSDYSILLEEQAAREFIEWLLAGGPSSGALQAPGQAPLASHLSTAQTARLSAELHK(Chem. 28)LATLPRTETGSGSP-NH2 | 12.6 pM | 3.08 pM | 2.88 pM | 48.9 pM | 12.5 pM | 113 pM
Compound 114 (peptide) peptide: Y[Aib]EGTFTSDYSILLEEQAAREFIEWLLAGGPSSGAGQAPGQAPGASHLSTAALARLSAELHK([AEEA-AEEA-γGlu-C18 diacid])LATLPRTETGSGSP-NH2 | 43.3 pM | 4.29 pM | 2.27 pM | 126 pM | 17.2 pM | 45.2 pM
Compound 104 (reading uncertain) peptide: H[Aib]HGTFTSDYSILLEEQAAREFIEWLLAGGPSSGAGQAPGQAPGASHLSTAQTARLSAELHK(Chem. 27)LATLPRTETGSGSP-NH2 | 4.16 pM | 3.57 pM | 1.49 pM | 19.1 pM | 17.3 pM | 293 pM
Compound 113 (peptide) peptide: Y[Aib]EGTFTSDYSILLEEQAAREFIEWLLAGGPSSGAGQAPGQAPGASHLSTAQTARLSAELHK([AEEA-AEEA-γGlu-C18 diacid])LATLPRTETGSGSP-NH2 | 14.4 pM | 2.02 pM | 2.53 pM | 57.5 pM | 8.96 pM | 136 pM
Compound 111 (peptide) peptide: Y[Aib]EGTFTSDYSILLEEQAAREFIEWLLAGGPSSGAGQAPGQAPGASHLSTAQTQRLSAELHRLK([AEEA-AEEA-AEEA-γGlu-C18 diacid])TLPRTETGSGSP-NH2 | 15.9 pM | 3.66 pM | 3.33 pM | 34.8 pM | 12.2 pM | 66.4 pM
Compound 101 (reading uncertain) peptide: H[Aib]HGTFTSDYSILLEEQAAREFIEWLLAGGPSK(Chem. 28)GAPPPSGGGEASHLSTAQTARLSAELHQLATLPRTETGSGSP-NH2 | 3.24 pM | 1.87 pM | 3.08 pM | 179 pM | 129 pM | 95.5 pM
